Legend:
PTB RRM1 WT [1] = molecular target: T1, PTB RRM1 WT (human, UniProt P26599-1 41-163); test: NMR; docked alpha3 49%; ITC (30 C) and NMR (40 C): 20 mM NaCl, 10 mM NaH2PO4 pH 6.5. EMSA: 20 mM NaH2PO4 pH 7.2, 100 mM NaCl, 5 mM MgCl2, 5% glycerol, 1 mM DTT, 50 ug/ml yeast tRNA, 40 ug/ml BSA, room temperature; settings: protein: recombinant; hairpin, UUCG tetraloop
PTB RRM1 P142G = PTB RRM1 P142G (human, UniProt P26599-1 41-163, P142G); test: NMR; alpha3 helicity increases on binding; ITC (30 C) and NMR (40 C): 20 mM NaCl, 10 mM NaH2PO4 pH 6.5. EMSA: 20 mM NaH2PO4 pH 7.2, 100 mM NaCl, 5 mM MgCl2, 5% glycerol, 1 mM DTT, 50 ug/ml yeast tRNA, 40 ug/ml BSA, room temperature; settings: protein: recombinant; tags: intein tag removed; label: 13C/15N in some NMR samples; hairpin, 5-nt loop UCUUU (positions 10-14)
PTB RRM1 N143G/R146G = PTB RRM1 N143G/R146G (human, UniProt P26599-1 41-163, N143G;R146G); test: ITC; Kd1; up to 3-fold; ITC (30 C) and NMR (40 C): 20 mM NaCl, 10 mM NaH2PO4 pH 6.5. EMSA: 20 mM NaH2PO4 pH 7.2, 100 mM NaCl, 5 mM MgCl2, 5% glycerol, 1 mM DTT, 50 ug/ml yeast tRNA, 40 ug/ml BSA, room temperature; settings: protein: recombinant; tags: intein tag removed; label: 13C/15N in some NMR samples; hairpin, 5-nt loop UCUUU (positions 10-14)
PTB RRM1 L151G = PTB RRM1 L151G (human, UniProt P26599-1 41-163, L151G); test: NMR; alpha3 does not fold; ITC (30 C) and NMR (40 C): 20 mM NaCl, 10 mM NaH2PO4 pH 6.5. EMSA: 20 mM NaH2PO4 pH 7.2, 100 mM NaCl, 5 mM MgCl2, 5% glycerol, 1 mM DTT, 50 ug/ml yeast tRNA, 40 ug/ml BSA, room temperature; settings: protein: recombinant; tags: intein tag removed; label: 13C/15N in some NMR samples; hairpin, 5-nt loop UCUUU (positions 10-14)
PTB RRM1 K94A = PTB RRM1 K94A (human, UniProt P26599-1 41-163, K94A); test: ITC; Kd1; almost 7-fold; ITC (30 C) and NMR (40 C): 20 mM NaCl, 10 mM NaH2PO4 pH 6.5. EMSA: 20 mM NaH2PO4 pH 7.2, 100 mM NaCl, 5 mM MgCl2, 5% glycerol, 1 mM DTT, 50 ug/ml yeast tRNA, 40 ug/ml BSA, room temperature; settings: protein: recombinant; tags: intein tag removed; label: 13C/15N in some NMR samples; hairpin, 5-nt loop UCUUU (positions 10-14)
PTB RRM1 WT [2] = molecular target: T1, PTB RRM1 WT; test: ITC; Kd1, two independent site model, 30 C; ITC (30 C) and NMR (40 C): 20 mM NaCl, 10 mM NaH2PO4 pH 6.5. EMSA: 20 mM NaH2PO4 pH 7.2, 100 mM NaCl, 5 mM MgCl2, 5% glycerol, 1 mM DTT, 50 ug/ml yeast tRNA, 40 ug/ml BSA, room temperature; settings: protein: recombinant; label: 13C/15N in some NMR samples; hairpin, 5-nt loop UCUUU (positions 10-14)
PTB RRM1 WT [3] = molecular target: T1, PTB RRM1 WT; test: NMR; alpha3 formed as with SL UCUUU; ITC (30 C) and NMR (40 C): 20 mM NaCl, 10 mM NaH2PO4 pH 6.5. EMSA: 20 mM NaH2PO4 pH 7.2, 100 mM NaCl, 5 mM MgCl2, 5% glycerol, 1 mM DTT, 50 ug/ml yeast tRNA, 40 ug/ml BSA, room temperature; settings: protein: recombinant; hairpin, 9-nt loop with UUCUU at its 5' end
PTB RRM1 WT [4] = molecular target: T1, PTB RRM1 WT; test: NMR; docked alpha3 78%; ITC (30 C) and NMR (40 C): 20 mM NaCl, 10 mM NaH2PO4 pH 6.5. EMSA: 20 mM NaH2PO4 pH 7.2, 100 mM NaCl, 5 mM MgCl2, 5% glycerol, 1 mM DTT, 50 ug/ml yeast tRNA, 40 ug/ml BSA, room temperature; settings: protein: recombinant; hairpin, loop UCUU
PTB RRM1 WT [5] = molecular target: T1, PTB RRM1 WT; test: NMR; docked alpha3 55%; ITC (30 C) and NMR (40 C): 20 mM NaCl, 10 mM NaH2PO4 pH 6.5. EMSA: 20 mM NaH2PO4 pH 7.2, 100 mM NaCl, 5 mM MgCl2, 5% glycerol, 1 mM DTT, 50 ug/ml yeast tRNA, 40 ug/ml BSA, room temperature; settings: protein: recombinant; hairpin, loop UCGUU
PTB RRM1 WT [6] = molecular target: T1, PTB RRM1 WT; test: NMR; docked alpha3 79%; ITC (30 C) and NMR (40 C): 20 mM NaCl, 10 mM NaH2PO4 pH 6.5. EMSA: 20 mM NaH2PO4 pH 7.2, 100 mM NaCl, 5 mM MgCl2, 5% glycerol, 1 mM DTT, 50 ug/ml yeast tRNA, 40 ug/ml BSA, room temperature; settings: protein: recombinant; hairpin, loop GCUUU
PTB RRM1 WT [7] = molecular target: T1, PTB RRM1 WT; test: NMR; 45 C; modest shift changes; ITC (30 C) and NMR (40 C): 20 mM NaCl, 10 mM NaH2PO4 pH 6.5. EMSA: 20 mM NaH2PO4 pH 7.2, 100 mM NaCl, 5 mM MgCl2, 5% glycerol, 1 mM DTT, 50 ug/ml yeast tRNA, 40 ug/ml BSA, room temperature; settings: protein: recombinant; single strand
PTB RRM1 WT [8] = molecular target: T1, PTB RRM1 WT; test: NMR; docked alpha3 66%; ITC (30 C) and NMR (40 C): 20 mM NaCl, 10 mM NaH2PO4 pH 6.5. EMSA: 20 mM NaH2PO4 pH 7.2, 100 mM NaCl, 5 mM MgCl2, 5% glycerol, 1 mM DTT, 50 ug/ml yeast tRNA, 40 ug/ml BSA, room temperature; settings: protein: recombinant; hairpin, loop UCUGU

T1 sequence (P26599 41-163): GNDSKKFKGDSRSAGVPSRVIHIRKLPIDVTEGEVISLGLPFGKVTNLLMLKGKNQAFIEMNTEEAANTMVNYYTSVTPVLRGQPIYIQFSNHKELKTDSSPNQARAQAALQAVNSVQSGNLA
Sequence of PTB RRM1 K94A (P26599 41-163 K94A): as the sequence (P26599 41-163) above, with K54A counted along it
Sequence of PTB RRM1 N143G/R146G (P26599 41-163 N143G/R146G): as the sequence (P26599 41-163) above, with N103G, R106G counted along it
Sequence of PTB RRM1 P142G (P26599 41-163 P142G): as the sequence (P26599 41-163) above, with P102G counted along it
Sequence of PTB RRM1 L151G (P26599 41-163 L151G): as the sequence (P26599 41-163) above, with L111G counted along it

GGGACCUGGUUCGCCAGGUCCC (structured_RNA) [SL UUCG]
binding result (PTB RRM1 WT [1]): binds

GGGACCUGGUCUUUCCAGGUCCC (structured_RNA) [SL UCUUU]
binding result (PTB RRM1 P142G): binds | binding signal (PTB RRM1 N143G/R146G): ~3 fold loss of affinity vs WT | binding result (PTB RRM1 L151G): binds | binding signal (PTB RRM1 K94A): ~7 fold loss of affinity vs WT | Kd (PTB RRM1 WT [2]): 100 ± 20 nM

GAUGGAUUCUUAUGCUCCAUC (structured_RNA) [hsa-mir-136 stem-loop]
binding result (PTB RRM1 WT [3]): binds

GGGACCUGGUCUUCCAGGUCCC (structured_RNA) [SL UCUU_]
binding result (PTB RRM1 WT [4]): binds

GGGACCUGGUCGUUCCAGGUCCC (structured_RNA) [SL UCGUU]
binding result (PTB RRM1 WT [5]): binds

GGGACCUGGGCUUUCCAGGUCCC (structured_RNA) [SL GCUUU]
binding result (PTB RRM1 WT [6]): binds

CUCUCU (ssRNA) [CUCUCU ssRNA]
binding result (PTB RRM1 WT [7]): binds

GGGACCUGGUCUGUCCAGGUCCC (structured_RNA) [SL UCUGU]
binding result (PTB RRM1 WT [8]): binds

— publication PMC7192611, “A transient α-helix in the N-terminal RNA recognition motif of polypyrimidine tract binding protein senses RNA secondary structure”
